According to patent publication EP4786492A1:

How the values were obtained:
[1] = biological target: human DLL3 protein expressed on CHO-K1 recombinant cells (human DLL3 extracellular segment fused to EpCAM transmembrane and intracellular regions) (human) (UniProt Q9NYJ7); assay: FACS, CHO-K1 hDLL3 cells, 0.8 nM antibody
[2] = biological target: mouse DLL3 on CHO-K1-mDLL3 cells (mouse) (UniProt O88516); assay: FACS, CHO-K1-mDLL3 cells, 0.0064 nM antibody
[3] = biological target: DLL3 endogenously expressed on NCI-H82 cells (UniProt Q9NYJ7); assay: FACS on NCI-H82 cells; antibody 0.16 nM
[4] = biological target: human DLL3 protein expressed on CHO-K1 recombinant cells (human DLL3 extracellular segment fused to EpCAM transmembrane and intracellular regions) (human) (UniProt Q9NYJ7); assay: FACS, CHO-K1 hDLL3 cells, 20 nM antibody
[5] = biological target: DLL3 endogenously expressed on NCI-H82 cells (UniProt Q9NYJ7); assay: FACS on NCI-H82 cells; antibody 0.00128 nM
[6] = biological target: mouse DLL3 on CHO-K1-mDLL3 cells (mouse) (UniProt O88516); assay: FACS, CHO-K1-mDLL3 cells, 0.16 nM antibody
[7] = biological target: mouse DLL3 on CHO-K1-mDLL3 cells (mouse) (UniProt O88516); assay: FACS, CHO-K1-mDLL3 cells, 0.00128 nM antibody
[8] = biological target: mouse DLL3 on CHO-K1-mDLL3 cells (mouse) (UniProt O88516); assay: FACS, CHO-K1-mDLL3 cells, 0.032 nM antibody
[9] = biological target: human DLL3 protein expressed on CHO-K1 recombinant cells (human DLL3 extracellular segment fused to EpCAM transmembrane and intracellular regions) (human) (UniProt Q9NYJ7); assay: FACS, CHO-K1 hDLL3 cells, 0.0064 nM antibody
[10] = biological target: human DLL3 protein expressed on CHO-K1 recombinant cells (human DLL3 extracellular segment fused to EpCAM transmembrane and intracellular regions) (human) (UniProt Q9NYJ7); assay: FACS, CHO-K1 hDLL3 cells, 4 nM antibody
[11] = biological target: DLL3 endogenously expressed on NCI-H82 cells (UniProt Q9NYJ7); assay: FACS on NCI-H82 cells; antibody 0.0064 nM
[12] = biological target: mouse DLL3 on CHO-K1-mDLL3 cells (mouse) (UniProt O88516); assay: FACS, CHO-K1-mDLL3 cells, 4 nM antibody
[13] = biological target: DLL3 endogenously expressed on NCI-H82 cells (UniProt Q9NYJ7); assay: FACS on NCI-H82 cells; antibody 4 nM
[14] = biological target: human DLL3 protein (extracellular segment, His tag) (human) (UniProt Q9NYJ7); assay: SPR (Biacore 8K), antibody captured on Protein A chip, DLL3 antigen in solution, 1:1 Langmuir fit
[15] = biological target: human DLL3 protein expressed on CHO-K1 recombinant cells (human DLL3 extracellular segment fused to EpCAM transmembrane and intracellular regions) (human) (UniProt Q9NYJ7); assay: FACS, CHO-K1 hDLL3 cells, 0.00128 nM antibody
[16] = biological target: mouse DLL3 on CHO-K1-mDLL3 cells (mouse) (UniProt O88516); assay: FACS, CHO-K1-mDLL3 cells, 20 nM antibody
[17] = biological target: human DLL1 protein (Acro, Cat. No. DL1-H52H8) (human) (UniProt O00548); assay: ELISA, coated hDLL1; maximum over 0.1, 1, 10, 100 nM antibody
[18] = biological target: mouse DLL3 on CHO-K1-mDLL3 cells (mouse) (UniProt O88516); assay: FACS, CHO-K1-mDLL3 cells, 0.8 nM antibody
[19] = biological target: human DLL3 protein expressed on CHO-K1 recombinant cells (human DLL3 extracellular segment fused to EpCAM transmembrane and intracellular regions) (human) (UniProt Q9NYJ7); assay: FACS, CHO-K1 hDLL3 cells, 100 nM antibody
[20] = biological target: mouse DLL3 on CHO-K1-mDLL3 cells (mouse) (UniProt O88516); assay: FACS, CHO-K1-mDLL3 cells, 100 nM antibody
[21] = biological target: human delta-like ligand 3 (DLL3) on SHP77 cells (human) (UniProt Q9NYJ7); assay: FACS on SHP77 cells
[22] = biological target: human DLL3 protein expressed on CHO-K1 recombinant cells (human DLL3 extracellular segment fused to EpCAM transmembrane and intracellular regions) (human) (UniProt Q9NYJ7); assay: FACS, CHO-K1 hDLL3 cells, 0.032 nM antibody
[23] = biological target: DLL3 endogenously expressed on NCI-H82 cells (UniProt Q9NYJ7); assay: FACS on NCI-H82 cells; antibody 100 nM
[24] = biological target: DLL3 endogenously expressed on NCI-H82 cells (UniProt Q9NYJ7); assay: FACS on NCI-H82 cells; antibody 0.8 nM
[25] = biological target: DLL3 endogenously expressed on NCI-H82 cells (UniProt Q9NYJ7); assay: FACS on NCI-H82 cells; antibody 20 nM
[26] = biological target: DLL3 endogenously expressed on NCI-H82 cells (UniProt Q9NYJ7); assay: FACS on NCI-H82 cells; antibody 0.032 nM
[27] = biological target: human DLL3 protein expressed on CHO-K1 recombinant cells (human DLL3 extracellular segment fused to EpCAM transmembrane and intracellular regions) (human) (UniProt Q9NYJ7); assay: FACS, CHO-K1 hDLL3 cells, 0.16 nM antibody
[28] = biological target: human DLL4 protein (Acro, Cat. No. DL4-H5227) (human) (UniProt Q9NR61); assay: ELISA, coated hDLL4; maximum over 0.1, 1, 10, 100 nM antibody
[29] = biological target: monkey DLL3 on CHO-K1-cyno DLL3 cells (cynomolgus monkey); assay: FACS, CHO-K1-cyno DLL3 cells, 0.8 nM antibody
[30] = biological target: monkey DLL3 on CHO-K1-cyno DLL3 cells (cynomolgus monkey); assay: FACS, CHO-K1-cyno DLL3 cells, 0.032 nM antibody
[31] = biological target: monkey DLL3 on CHO-K1-cyno DLL3 cells (cynomolgus monkey); assay: FACS, CHO-K1-cyno DLL3 cells, 0.0064 nM antibody
[32] = biological target: monkey DLL3 on CHO-K1-cyno DLL3 cells (cynomolgus monkey); assay: FACS, CHO-K1-cyno DLL3 cells, 20 nM antibody
[33] = biological target: monkey DLL3 on CHO-K1-cyno DLL3 cells (cynomolgus monkey); assay: FACS, CHO-K1-cyno DLL3 cells, 0.16 nM antibody
[34] = biological target: monkey DLL3 on CHO-K1-cyno DLL3 cells (cynomolgus monkey); assay: FACS, CHO-K1-cyno DLL3 cells, 4 nM antibody
[35] = biological target: monkey DLL3 on CHO-K1-cyno DLL3 cells (cynomolgus monkey); assay: FACS, CHO-K1-cyno DLL3 cells, 100 nM antibody
[36] = biological target: monkey DLL3 on CHO-K1-cyno DLL3 cells (cynomolgus monkey); assay: FACS, CHO-K1-cyno DLL3 cells, 0.00128 nM antibody

Chain of monkey DLL3 on CHO-K1-cyno DLL3 cells (cynomolgus monkey) (chain, as listed by the source limits assumed): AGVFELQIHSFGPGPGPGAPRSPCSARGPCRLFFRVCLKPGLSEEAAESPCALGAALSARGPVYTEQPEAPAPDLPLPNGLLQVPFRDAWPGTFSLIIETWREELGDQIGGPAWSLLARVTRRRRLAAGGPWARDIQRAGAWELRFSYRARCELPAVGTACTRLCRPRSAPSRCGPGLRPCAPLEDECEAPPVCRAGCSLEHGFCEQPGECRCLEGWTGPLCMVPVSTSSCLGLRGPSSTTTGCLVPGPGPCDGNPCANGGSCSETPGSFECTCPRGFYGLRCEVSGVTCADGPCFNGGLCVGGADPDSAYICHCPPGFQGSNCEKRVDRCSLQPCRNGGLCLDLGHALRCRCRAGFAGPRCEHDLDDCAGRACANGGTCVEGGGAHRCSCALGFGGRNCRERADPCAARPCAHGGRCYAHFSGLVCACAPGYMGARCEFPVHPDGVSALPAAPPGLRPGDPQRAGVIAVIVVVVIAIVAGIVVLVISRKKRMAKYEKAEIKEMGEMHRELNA
Chain of human DLL1 protein (Acro, Cat. No. DL1-H52H8) (human) (O00548 18-540 limits assumed): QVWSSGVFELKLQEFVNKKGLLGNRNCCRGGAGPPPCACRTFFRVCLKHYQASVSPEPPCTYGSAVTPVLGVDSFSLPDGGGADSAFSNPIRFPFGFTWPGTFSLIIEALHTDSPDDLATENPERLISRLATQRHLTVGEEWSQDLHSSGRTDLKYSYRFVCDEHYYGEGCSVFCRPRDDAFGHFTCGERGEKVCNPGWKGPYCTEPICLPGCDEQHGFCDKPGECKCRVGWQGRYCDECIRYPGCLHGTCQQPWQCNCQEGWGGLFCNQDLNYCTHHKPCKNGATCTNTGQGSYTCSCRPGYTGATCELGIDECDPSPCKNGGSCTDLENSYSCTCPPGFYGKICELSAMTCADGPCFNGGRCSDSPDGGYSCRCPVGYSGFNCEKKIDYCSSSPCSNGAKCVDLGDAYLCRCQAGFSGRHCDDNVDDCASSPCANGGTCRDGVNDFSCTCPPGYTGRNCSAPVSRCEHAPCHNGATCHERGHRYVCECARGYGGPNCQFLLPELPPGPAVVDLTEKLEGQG
Chain of human DLL3 protein expressed on CHO-K1 recombinant cells (human DLL3 extracellular segment fused to EpCAM transmembrane and intracellular regions) (human) (Q9NYJ7 other isoform, or with tags, fused parts or gaps limits assumed): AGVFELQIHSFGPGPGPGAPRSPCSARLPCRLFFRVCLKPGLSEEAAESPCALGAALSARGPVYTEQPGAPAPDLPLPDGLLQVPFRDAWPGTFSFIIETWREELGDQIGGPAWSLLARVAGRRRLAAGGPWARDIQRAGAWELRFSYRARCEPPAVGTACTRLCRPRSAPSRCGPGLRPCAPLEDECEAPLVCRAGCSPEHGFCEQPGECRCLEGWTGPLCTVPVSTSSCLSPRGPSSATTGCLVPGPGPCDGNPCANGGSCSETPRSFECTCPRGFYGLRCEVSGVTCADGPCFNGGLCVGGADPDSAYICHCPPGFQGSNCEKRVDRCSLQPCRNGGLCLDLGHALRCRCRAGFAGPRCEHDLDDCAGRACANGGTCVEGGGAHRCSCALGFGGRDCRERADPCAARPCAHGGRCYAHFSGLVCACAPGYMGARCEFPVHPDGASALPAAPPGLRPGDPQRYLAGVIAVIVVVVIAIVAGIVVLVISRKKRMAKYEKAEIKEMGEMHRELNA
Chain of DLL3 endogenously expressed on NCI-H82 cells (Q9NYJ7 27-618): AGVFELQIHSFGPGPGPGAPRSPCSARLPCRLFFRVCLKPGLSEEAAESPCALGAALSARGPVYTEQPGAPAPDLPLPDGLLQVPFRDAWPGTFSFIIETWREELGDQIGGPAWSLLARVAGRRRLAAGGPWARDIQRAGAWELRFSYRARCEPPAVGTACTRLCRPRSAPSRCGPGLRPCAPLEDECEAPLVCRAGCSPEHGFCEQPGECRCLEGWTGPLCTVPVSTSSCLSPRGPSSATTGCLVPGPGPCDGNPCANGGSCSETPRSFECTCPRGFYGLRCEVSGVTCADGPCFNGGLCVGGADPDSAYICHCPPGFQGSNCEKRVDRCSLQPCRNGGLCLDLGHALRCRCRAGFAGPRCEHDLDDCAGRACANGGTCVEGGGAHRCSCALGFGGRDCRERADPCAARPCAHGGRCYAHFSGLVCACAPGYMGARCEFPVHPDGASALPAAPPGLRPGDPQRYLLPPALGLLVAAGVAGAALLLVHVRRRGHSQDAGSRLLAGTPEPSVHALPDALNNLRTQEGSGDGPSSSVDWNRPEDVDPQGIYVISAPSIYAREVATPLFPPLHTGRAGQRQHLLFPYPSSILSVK
Chain of human delta-like ligand 3 (DLL3) on SHP77 cells (human) (Q9NYJ7 27-618, stated change not applied): as the sequence (Q9NYJ7 27-618) above
Chain of human DLL3 protein (extracellular segment, His tag) (human) (Q9NYJ7 27-492): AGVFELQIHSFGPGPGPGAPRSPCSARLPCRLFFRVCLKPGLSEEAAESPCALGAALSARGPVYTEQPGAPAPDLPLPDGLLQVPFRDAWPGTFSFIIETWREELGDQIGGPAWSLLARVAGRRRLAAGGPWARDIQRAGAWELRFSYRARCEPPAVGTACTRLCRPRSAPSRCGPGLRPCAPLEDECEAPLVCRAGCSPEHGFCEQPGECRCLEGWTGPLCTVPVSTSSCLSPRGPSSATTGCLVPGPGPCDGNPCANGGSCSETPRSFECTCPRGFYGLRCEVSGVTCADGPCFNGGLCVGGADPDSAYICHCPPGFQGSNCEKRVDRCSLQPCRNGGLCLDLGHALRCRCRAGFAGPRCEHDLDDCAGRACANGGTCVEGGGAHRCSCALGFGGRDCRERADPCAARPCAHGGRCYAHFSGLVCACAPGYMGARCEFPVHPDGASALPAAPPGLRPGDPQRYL
Chain of mouse DLL3 on CHO-K1-mDLL3 cells (mouse) (O88516 other isoform, or with tags, fused parts or gaps limits assumed): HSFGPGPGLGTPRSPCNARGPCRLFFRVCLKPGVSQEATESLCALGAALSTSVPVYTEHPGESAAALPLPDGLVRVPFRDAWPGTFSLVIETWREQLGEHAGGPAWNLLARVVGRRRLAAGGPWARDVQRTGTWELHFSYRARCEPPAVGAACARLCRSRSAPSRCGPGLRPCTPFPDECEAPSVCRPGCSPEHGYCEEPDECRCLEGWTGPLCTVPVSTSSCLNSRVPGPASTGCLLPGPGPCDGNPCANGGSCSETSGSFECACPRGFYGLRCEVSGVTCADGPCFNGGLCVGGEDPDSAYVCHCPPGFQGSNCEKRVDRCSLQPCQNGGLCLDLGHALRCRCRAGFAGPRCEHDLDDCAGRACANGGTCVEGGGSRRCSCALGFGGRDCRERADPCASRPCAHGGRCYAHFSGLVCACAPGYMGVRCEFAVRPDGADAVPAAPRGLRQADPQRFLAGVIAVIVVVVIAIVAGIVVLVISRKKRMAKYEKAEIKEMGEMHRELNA
Chain of human DLL4 protein (Acro, Cat. No. DL4-H5227) (human) (Q9NR61 27-524 limits assumed): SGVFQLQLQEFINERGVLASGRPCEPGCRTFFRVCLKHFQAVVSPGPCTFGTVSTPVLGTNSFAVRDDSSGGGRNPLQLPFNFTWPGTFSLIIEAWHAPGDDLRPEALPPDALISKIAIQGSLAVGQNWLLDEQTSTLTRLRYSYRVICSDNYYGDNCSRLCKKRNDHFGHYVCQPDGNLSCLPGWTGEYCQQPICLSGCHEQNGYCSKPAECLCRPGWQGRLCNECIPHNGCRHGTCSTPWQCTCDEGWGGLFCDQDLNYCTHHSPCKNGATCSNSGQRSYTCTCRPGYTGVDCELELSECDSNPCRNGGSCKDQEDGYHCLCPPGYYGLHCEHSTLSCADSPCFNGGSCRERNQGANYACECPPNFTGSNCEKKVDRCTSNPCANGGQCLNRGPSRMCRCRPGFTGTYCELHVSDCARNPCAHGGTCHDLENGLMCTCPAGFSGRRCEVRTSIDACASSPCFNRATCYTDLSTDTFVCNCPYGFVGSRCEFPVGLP

Row | Binder | MFI [1] [MFI] | MFI [2] [MFI] | MFI [4] [MFI] | MFI [6] [MFI] | MFI [7] [MFI] | MFI [8] [MFI] | MFI [9] [MFI] | MFI [10] [MFI] | MFI [12] [MFI] | Kd [14] [nM] | koff [14] [s⁻¹] | kon [14] [M⁻¹ s⁻¹] | MFI [15] [MFI] | MFI [16] [MFI] | Emax of OD450 nm binding value [17] [OD450 nm] | MFI [18] [MFI] | MFI [19] [MFI] | MFI [20] [MFI] | MFI at 0.00128 nM [21] [MFI] | Emax of OD450 nm binding value [28] [OD450 nm] | further results
1 | Hab013VL2VH2a-hFc (scFv, part only; not given: scFv linker and human IgG1 Fc, V domains shown, not shown: another chain or arm of the molecule; a dimerising Fc or GST; small tags and cut ends) VL: EIVLTQSPATLSLSPGERATLSCRASKSVSTSGFSYMHWYQQKPGQPPRLLIYLASNLESGIPARFSGSGSGTDFTLTISSLEPEDFAVYYCQHSRELPFTFGQGTKLEIK VH: EVQLVQSGAEVKKPGSSVKVSCKASGYAFSNYWINWVRQAPGQGLEWMGQINPGDGDTIYNSKFKGRVTITADKSTSTAYMELSSLRSEDTAVYYCEREGRNYGDFAYWGQGTTVTVSS | 11200 | 125 | 16300 | 313 | 113 | 179 | 270 | 14900 | 557 | 0.112 | 0.000371 | 3.32e+06 | 164 | 655 | 0.05 | 463 | 19500 | 764 | 116 | 0.05 | MFI [3]: 670; MFI [5]: 130; MFI [11]: 185; MFI [13]: 1030; MFI at 0.0064 nM [21]: 131 MFI; MFI at 0.032 nM [21]: 183 MFI; MFI at 0.16 nM [21]: 323 MFI; MFI at 0.8 nM [21]: 541 MFI; MFI at 4 nM [21]: 719 MFI; MFI at 20 nM [21]: 876 MFI; MFI at 100 nM [21]: 1140 MFI; MFI [22]: 789 MFI; MFI [23]: 1520; MFI [24]: 831; MFI [25]: 1170; MFI [26]: 356; MFI [27]: 3190 MFI
2 | Hab009VL3aVH1-hFc (scFv, part only; not given: VL-VH linker and human IgG1 Fc, V domains shown, not shown: another chain or arm of the molecule; a dimerising Fc or GST; small tags and cut ends) VL: DIVMTQSPLSLPVTPGEPASISCRASQTISDYLHWYLQKSHQSPQLLIKYASQSISGVPDRFSGSGSGTDFTLKISRVEAEDVGVYYCQQGHSFPLTFGQGTKLEIK VH: EVQLVQSGAEVKKPGASVKVSCKASGYTFTSYWMHWVRQAPGQRLEWMGTIYPGNSDTRYNQKFKDRVTITADTSASTAYMELSSLRSEDTAVYYCTRSYDYGDLDYWGQGTTVTVSS |  | 269 |  | 345 | 190 | 287 |  |  | 458 | 0.304 | 0.00175 | 5.76e+06 |  | 491 | 0.06 | 413 |  | 553 |  | 0.06 | MFI [29]: 24700 MFI; MFI [30]: 4020 MFI; MFI [3]: 669; MFI [31]: 3760 MFI; MFI [5]: 123; MFI [11]: 179; MFI [32]: 30000 MFI; MFI [13]: 738; MFI [33]: 10600 MFI; MFI [34]: 30000 MFI; MFI [23]: 872; MFI [35]: 29600 MFI; MFI [24]: 709; MFI [25]: 796; MFI [36]: 1450 MFI; MFI [26]: 371
3 | Hab006VL4VH2-hFc (scFv, part only; not given: scFv linker and human IgG1 Fc, V domains shown, not shown: another chain or arm of the molecule; a dimerising Fc or GST; small tags and cut ends) VL: DIVMTQSPDSLAVSLGERATINCRATKSISKYLAWYQQKPGQTNKLLIFSGSTLQSGVPDRFSGSGSGTDFTLTISSLQAEDVAVYYCQQHHEYPYTFGGGTKVEIK VH: EVQLVQSGAEVKKPGASVKVSCKASGYTFTSYWMHWVRQAPGQRLEWMGVIDPSDSLANYNQEFKGRVTLTVDTSASTAYMELSSLRSEDTAVYYCARDSTVVAPMDYWGQGTTVTVSS | 11900 | 118 | 14500 | 343 | 99 | 185 | 458 | 13800 | 577 | 0.395 | 0.000156 | 394000 | 243 | 605 | 0.05 | 495 | 15400 | 580 | 199 | 0.06 | MFI [29]: 7810 MFI; MFI [30]: 1340 MFI; MFI [31]: 494 MFI; MFI [32]: 9180 MFI; MFI [33]: 3970 MFI; MFI [34]: 8510 MFI; MFI at 0.0064 nM [21]: 281 MFI; MFI at 0.032 nM [21]: 528 MFI; MFI at 0.16 nM [21]: 1050 MFI; MFI at 0.8 nM [21]: 1330 MFI; MFI at 4 nM [21]: 1500 MFI; MFI at 20 nM [21]: 1620 MFI; MFI at 100 nM [21]: 1870 MFI; MFI [22]: 1340 MFI; MFI [35]: 10500 MFI; MFI [36]: 276 MFI; MFI [27]: 4700 MFI
4 | Hab009VL1aVH1-hFc (scFv, part only; not given: scFv linker and human IgG1 Fc, V domains shown, not shown: another chain or arm of the molecule; a dimerising Fc or GST; small tags and cut ends) VL: DIVMTQSPLSLPVTPGEPASISCRASQTISDYLHWYLQKPGQSPQLLIKYASQSISGVPDRFSGSGSGSDFTLKISRVEAEDVGVYYCQQGHSFPLTFGQGTKLEIK VH: EVQLVQSGAEVKKPGASVKVSCKASGYTFTSYWMHWVRQAPGQRLEWMGTIYPGNSDTRYNQKFKDRVTITADTSASTAYMELSSLRSEDTAVYYCTRSYDYGDLDYWGQGTTVTVSS | 11000 | 109 | 12400 | 258 | 86 | 166 | 452 | 11900 | 367 | 0.325 | 0.00194 | 5.96e+06 | 199 | 383 | 0.05 | 327 | 12900 | 400 | 107 | 0.08 | MFI [29]: 6880 MFI; MFI [30]: 423 MFI; MFI [31]: 178 MFI; MFI [32]: 27100 MFI; MFI [33]: 1640 MFI; MFI [34]: 19900 MFI; MFI at 0.0064 nM [21]: 129 MFI; MFI at 0.032 nM [21]: 205 MFI; MFI at 0.16 nM [21]: 430 MFI; MFI at 0.8 nM [21]: 692 MFI; MFI at 4 nM [21]: 783 MFI; MFI at 20 nM [21]: 855 MFI; MFI at 100 nM [21]: 969 MFI; MFI [22]: 1540 MFI; MFI [35]: 27000 MFI; MFI [36]: 120 MFI; MFI [27]: 5840 MFI
